Columns and labels:
Test in all cases: Flag IP of Flag-SHARPIN from WM115 lysate, on-bead tryptic digestion, LC/MS-MS
VIM = target: T1, VIM (human, UniProt P08670 2-466)
T1 construct: endogenous protein co-purified from WM115 lysate
Experimental: (§1) To identify SHARPIN-interacting proteins, WM115 cells were transfected with Flag-tagged SHARPIN or control empty plasmid. Cell lysates were prepared using 1% Triton X-100 buffer [50 mM Tris-HCl, pH7.4, 1% (v/v) Triton X-100, 150 mM NaCl, 1 mM EDTA, and protease and phosphatase inhibitor cocktails (Thermo Fisher Scientific)]. Lysates were pre-cleared with protein A/G beads (Santa Cruz Biotechnology) for 1 h at 4° C. followed by immunoprecipitation using FLAG-M2-agarose beads (Sigma-Aldrich) overnight at 4° C. Beads were then washed with lysis buffer and TBS containing lx protease inhibitor cocktail before being subjected to on-bead tryptic digestion followed by mass spectrometry. In Vitro Methylation Assay.

CLTC = target: T2, CLTC (human, UniProt Q00610 2-1675)
T2 construct: endogenous protein co-purified from WM115 lysate
T2 sequence (Q00610 2-1675 limits assumed): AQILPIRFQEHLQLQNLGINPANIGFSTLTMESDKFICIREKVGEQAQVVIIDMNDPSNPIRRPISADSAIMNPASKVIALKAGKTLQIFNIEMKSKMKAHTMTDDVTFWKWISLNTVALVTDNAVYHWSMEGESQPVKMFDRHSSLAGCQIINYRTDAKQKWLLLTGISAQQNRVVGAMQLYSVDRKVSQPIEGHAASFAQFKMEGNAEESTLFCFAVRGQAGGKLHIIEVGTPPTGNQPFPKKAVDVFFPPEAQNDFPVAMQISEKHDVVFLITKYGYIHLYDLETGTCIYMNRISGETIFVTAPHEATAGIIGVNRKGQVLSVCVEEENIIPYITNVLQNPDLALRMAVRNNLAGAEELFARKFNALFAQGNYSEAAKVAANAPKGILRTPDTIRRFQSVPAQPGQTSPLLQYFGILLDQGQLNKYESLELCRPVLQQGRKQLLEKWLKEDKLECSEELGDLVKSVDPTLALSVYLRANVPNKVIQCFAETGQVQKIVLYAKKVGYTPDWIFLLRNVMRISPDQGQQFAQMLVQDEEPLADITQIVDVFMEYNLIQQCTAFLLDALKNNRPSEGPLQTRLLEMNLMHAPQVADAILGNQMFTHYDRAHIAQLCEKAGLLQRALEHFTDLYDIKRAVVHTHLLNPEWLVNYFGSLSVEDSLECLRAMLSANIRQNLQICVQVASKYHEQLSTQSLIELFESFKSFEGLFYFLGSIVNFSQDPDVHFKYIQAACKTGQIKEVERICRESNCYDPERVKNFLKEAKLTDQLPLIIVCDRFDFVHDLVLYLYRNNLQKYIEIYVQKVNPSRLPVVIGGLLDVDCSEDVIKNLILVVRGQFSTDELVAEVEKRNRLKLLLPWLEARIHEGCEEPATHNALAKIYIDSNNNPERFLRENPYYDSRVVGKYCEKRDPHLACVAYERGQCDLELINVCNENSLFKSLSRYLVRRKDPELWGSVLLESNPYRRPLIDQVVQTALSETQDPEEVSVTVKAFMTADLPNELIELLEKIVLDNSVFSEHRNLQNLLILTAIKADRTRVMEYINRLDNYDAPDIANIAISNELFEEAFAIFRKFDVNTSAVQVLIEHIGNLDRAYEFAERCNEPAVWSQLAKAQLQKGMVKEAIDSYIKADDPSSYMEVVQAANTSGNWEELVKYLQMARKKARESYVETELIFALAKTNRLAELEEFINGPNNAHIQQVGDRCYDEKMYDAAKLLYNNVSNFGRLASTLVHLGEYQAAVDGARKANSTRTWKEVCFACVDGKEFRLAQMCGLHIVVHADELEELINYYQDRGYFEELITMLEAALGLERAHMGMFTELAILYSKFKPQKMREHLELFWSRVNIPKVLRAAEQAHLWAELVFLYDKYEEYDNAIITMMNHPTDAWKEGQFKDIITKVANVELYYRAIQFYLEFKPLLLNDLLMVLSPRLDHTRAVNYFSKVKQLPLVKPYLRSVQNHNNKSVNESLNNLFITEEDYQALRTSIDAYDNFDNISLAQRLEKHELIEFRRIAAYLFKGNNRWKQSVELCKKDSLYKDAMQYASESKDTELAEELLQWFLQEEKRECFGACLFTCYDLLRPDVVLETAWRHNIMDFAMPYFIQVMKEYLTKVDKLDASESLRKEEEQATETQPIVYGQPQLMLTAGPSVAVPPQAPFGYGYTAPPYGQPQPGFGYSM
Experimental: as §1

P4HB = target: T3, P4HB (human, UniProt P07237 18-508)
T3 construct: endogenous protein co-purified from WM115 lysate
T3 sequence (P07237 18-508 limits assumed): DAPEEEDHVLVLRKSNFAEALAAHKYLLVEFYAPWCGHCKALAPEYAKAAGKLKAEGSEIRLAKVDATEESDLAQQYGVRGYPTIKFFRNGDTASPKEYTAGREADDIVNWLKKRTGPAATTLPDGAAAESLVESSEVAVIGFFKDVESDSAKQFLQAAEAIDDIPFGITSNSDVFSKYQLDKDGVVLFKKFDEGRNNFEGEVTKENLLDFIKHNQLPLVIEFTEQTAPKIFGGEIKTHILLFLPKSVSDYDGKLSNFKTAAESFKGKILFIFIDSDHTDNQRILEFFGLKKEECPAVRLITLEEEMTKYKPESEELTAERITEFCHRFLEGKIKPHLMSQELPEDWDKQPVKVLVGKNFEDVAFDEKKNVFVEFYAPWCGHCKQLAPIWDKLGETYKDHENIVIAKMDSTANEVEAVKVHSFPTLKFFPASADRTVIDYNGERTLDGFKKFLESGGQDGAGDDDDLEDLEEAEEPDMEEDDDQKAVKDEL
Experimental: as §1

XRCC6 = target: T4, XRCC6 (human, UniProt P12956 2-609)
T4 construct: endogenous protein co-purified from WM115 lysate
T4 sequence (P12956 2-609 limits assumed): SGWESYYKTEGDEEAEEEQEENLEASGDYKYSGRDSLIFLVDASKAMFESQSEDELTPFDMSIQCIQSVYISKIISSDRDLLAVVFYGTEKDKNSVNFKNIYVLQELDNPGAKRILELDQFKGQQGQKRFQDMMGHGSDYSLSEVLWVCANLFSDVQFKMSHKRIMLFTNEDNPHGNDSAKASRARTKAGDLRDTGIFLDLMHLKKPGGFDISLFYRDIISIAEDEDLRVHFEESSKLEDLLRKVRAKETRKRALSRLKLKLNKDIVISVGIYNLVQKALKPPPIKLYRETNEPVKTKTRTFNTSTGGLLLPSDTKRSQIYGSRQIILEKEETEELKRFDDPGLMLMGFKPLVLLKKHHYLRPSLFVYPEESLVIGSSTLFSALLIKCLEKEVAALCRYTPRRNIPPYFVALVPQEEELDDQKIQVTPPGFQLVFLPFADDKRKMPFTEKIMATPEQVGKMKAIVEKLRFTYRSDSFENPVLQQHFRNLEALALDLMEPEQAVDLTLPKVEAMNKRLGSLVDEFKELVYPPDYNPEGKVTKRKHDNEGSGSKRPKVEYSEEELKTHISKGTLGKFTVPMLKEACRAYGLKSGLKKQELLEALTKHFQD
Experimental: as §1

RNF31 = target: T5, RNF31 (human, UniProt Q96EP0 1-1072)
T5 construct: endogenous protein co-purified from WM115 lysate
T5 sequence (looked up): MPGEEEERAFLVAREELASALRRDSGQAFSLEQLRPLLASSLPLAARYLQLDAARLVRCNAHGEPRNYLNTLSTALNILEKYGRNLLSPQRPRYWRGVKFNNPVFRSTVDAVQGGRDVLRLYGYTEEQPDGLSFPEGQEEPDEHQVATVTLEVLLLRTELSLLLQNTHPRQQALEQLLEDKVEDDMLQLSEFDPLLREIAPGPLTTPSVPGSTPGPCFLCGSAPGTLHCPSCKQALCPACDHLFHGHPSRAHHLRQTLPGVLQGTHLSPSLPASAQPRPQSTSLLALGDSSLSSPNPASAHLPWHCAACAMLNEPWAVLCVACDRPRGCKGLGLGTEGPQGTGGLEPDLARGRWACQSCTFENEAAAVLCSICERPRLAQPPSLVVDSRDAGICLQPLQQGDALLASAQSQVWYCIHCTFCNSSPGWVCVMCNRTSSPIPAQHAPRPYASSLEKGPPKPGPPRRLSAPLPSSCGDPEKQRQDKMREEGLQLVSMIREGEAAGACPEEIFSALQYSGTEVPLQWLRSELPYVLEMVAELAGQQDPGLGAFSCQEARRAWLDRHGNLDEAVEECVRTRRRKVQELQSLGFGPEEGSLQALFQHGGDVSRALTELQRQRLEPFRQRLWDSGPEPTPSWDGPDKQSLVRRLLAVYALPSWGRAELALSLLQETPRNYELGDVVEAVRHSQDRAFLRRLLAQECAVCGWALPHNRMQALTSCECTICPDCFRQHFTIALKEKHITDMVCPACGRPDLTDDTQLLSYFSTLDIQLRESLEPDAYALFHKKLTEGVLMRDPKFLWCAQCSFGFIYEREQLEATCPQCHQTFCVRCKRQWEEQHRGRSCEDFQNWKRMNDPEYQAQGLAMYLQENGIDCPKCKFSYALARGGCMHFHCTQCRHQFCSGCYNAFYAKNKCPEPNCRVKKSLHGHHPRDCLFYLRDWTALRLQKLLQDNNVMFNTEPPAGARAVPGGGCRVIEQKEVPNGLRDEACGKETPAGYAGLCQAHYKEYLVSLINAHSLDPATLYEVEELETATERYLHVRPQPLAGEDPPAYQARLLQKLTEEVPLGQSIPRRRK
Experimental: as §1

ATP5B = target: T6, ATP5B (human, UniProt P06576 48-529)
T6 construct: endogenous protein co-purified from WM115 lysate
T6 sequence (P06576 48-529 limits assumed): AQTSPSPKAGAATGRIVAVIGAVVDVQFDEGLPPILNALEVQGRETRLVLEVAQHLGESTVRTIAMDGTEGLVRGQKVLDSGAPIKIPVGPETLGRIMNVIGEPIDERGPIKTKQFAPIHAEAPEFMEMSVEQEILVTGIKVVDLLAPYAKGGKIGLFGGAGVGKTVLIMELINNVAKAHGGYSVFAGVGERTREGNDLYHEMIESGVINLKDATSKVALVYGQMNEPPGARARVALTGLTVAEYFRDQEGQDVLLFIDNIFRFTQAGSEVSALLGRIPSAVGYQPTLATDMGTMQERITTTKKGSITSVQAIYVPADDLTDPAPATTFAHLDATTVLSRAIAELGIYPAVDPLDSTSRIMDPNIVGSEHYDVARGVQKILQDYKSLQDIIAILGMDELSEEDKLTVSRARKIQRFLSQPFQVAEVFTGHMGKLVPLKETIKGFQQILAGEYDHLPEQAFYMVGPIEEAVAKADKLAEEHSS
Experimental: as §1

RBM10 = target: T7, RBM10 (human, UniProt P98175 1-930, limits assumed)
T7 construct: endogenous protein co-purified from WM115 lysate
T7 sequence (P98175 whole entry): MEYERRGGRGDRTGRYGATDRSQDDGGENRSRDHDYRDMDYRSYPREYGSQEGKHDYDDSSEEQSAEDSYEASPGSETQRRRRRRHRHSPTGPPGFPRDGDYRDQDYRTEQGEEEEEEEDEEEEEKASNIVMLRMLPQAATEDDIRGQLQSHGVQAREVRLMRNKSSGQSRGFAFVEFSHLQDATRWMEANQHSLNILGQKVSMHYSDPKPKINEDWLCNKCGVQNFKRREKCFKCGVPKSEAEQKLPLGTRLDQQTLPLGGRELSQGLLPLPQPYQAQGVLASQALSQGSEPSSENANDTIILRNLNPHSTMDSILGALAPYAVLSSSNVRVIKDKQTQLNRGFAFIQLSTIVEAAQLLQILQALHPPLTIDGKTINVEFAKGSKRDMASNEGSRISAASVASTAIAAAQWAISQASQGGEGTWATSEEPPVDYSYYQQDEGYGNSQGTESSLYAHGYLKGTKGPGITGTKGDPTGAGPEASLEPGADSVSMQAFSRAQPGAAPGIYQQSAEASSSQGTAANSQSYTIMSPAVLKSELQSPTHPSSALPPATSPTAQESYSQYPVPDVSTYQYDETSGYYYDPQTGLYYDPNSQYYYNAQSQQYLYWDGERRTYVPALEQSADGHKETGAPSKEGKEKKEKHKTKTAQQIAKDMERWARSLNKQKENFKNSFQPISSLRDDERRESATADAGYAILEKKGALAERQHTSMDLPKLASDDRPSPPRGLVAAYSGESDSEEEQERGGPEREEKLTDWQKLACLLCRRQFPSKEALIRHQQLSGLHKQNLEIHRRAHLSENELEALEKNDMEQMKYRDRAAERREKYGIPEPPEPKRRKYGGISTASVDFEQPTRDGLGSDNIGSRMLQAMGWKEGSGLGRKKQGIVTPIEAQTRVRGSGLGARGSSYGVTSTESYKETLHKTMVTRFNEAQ
Experimental: as §1

XRCC5 = target: T8, XRCC5 (human, UniProt P13010 2-732)
T8 construct: endogenous protein co-purified from WM115 lysate
T8 sequence (P13010 2-732 limits assumed): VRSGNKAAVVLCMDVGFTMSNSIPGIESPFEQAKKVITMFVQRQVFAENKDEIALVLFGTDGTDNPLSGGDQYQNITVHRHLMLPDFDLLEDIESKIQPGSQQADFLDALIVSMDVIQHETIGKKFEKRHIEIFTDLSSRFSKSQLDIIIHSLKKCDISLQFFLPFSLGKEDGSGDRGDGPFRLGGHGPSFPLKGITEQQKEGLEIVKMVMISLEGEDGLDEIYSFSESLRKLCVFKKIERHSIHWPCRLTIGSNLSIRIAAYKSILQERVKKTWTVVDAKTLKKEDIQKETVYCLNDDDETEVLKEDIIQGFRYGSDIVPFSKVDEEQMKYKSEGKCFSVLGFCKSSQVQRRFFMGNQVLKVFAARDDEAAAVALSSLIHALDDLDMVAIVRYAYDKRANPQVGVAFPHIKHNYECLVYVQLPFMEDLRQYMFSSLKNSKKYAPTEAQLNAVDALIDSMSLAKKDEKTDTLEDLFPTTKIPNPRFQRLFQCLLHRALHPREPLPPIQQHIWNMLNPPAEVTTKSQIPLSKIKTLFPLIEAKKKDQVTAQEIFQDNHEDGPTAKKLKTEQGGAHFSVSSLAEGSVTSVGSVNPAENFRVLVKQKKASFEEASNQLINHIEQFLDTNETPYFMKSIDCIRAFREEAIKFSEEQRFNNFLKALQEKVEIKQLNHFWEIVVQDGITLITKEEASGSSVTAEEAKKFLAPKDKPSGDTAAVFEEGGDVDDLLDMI
Experimental: as §1

PNKP = target: T9, PNKP (human, UniProt Q96T60 1-521)
T9 construct: endogenous protein co-purified from WM115 lysate
Experimental: as §1

[1] = target: T10, Gamma-interferon-inducible protein 16 (IFI16) (human, UniProt Q16666 1-785)
T10 construct: Endogenous protein in WM115 / A375
T10 sequence: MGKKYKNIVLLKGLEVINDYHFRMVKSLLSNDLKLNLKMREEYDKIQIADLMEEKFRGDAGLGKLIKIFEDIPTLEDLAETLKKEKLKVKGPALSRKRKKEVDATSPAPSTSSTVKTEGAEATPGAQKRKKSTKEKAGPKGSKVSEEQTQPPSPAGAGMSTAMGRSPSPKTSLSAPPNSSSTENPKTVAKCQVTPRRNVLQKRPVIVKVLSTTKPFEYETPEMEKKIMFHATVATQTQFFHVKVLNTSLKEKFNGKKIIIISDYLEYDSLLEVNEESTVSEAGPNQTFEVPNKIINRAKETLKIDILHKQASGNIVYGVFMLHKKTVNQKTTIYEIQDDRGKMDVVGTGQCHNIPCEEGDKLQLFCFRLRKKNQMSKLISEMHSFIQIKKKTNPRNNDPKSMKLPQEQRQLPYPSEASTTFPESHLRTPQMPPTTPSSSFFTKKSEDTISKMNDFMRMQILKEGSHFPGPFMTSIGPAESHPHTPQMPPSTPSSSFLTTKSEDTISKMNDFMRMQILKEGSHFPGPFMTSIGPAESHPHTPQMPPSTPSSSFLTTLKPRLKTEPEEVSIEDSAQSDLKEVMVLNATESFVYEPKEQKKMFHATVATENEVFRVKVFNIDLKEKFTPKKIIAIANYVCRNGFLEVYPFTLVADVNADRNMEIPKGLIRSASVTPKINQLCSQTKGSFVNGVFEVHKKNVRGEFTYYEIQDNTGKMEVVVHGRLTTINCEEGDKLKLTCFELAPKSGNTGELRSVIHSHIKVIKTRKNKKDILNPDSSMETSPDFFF
Experimental: as §1

Measured: binding result

B1: Flag-tagged SHARPIN (other, human, UniProt Q9H0F6 1-387, looked up)
chain: MAPPAGGAAAAASDLGSAAVLLAVHAAVRPLGAGPDAEAQLRRLQLSADPERPGRFRLELLGAGPGAVNLEWPLESVSYTIRGPTQHELQPPPGGPGTLSLHFLNPQEAQRWAVLVRGATVEGQNGSKSNSPPALGPEACPVSLPSPPEASTLKGPPPEADLPRSPGNLTEREELAGSLARAIAGGDEKGAAQVAAVLAQHRVALSVQLQEACFPPGPIRLQVTLEDAASAASAASSAHVALQVHPHCTVAALQEQVFSELGFPPAVQRWVIGRCLCVPERSLASYGVRQDGDPAFLYLLSAPREAPATGPSPQHPQKMDGELGRLFPPSLGLPPGPQPAASSLPSPLQPSWSCPSCTFINAPDRPGCEMCSTQRPCTWDPLAAAST
notes: also called Flag-SHARPIN; not shown: FLAG tag
binds: all assays above

Source: patent US20230301998A1 (SANFORD BURNHAM PREBYS MEDICAL DISCOVERY INSTITUTE, published 2023)
